Reference: article PMC3019263 (Archives of biochemistry and biophysics, 2010)

Molecular target: the molecule itself
Assay: SEC

B1: PheH117, the regulatory domain of rat phenylalanine hydroxylase, lacking residues after Thr117 (domain or fragment, UniProt P04176 1-117, looked up)
chain: MAAVVLENGVLSRKLSDFGQETSYIEDNSNQNGAISLIFSLKEEVGALAKVLRLFEENDINLTHIESRPSRLNKDEYEFFTYLDKRTKPVLGSIIKSLRNDIGATVHELSRDKEKNT
stoichiometry N: 2
